The source of these data is publication PMC8123688.

In this test the target is TSH receptor (TSHR) on human ML-1 cells (human (endogenous in ML-1)) (UniProt P16473). Put plainly: radioligand binding; real-time kinetic binding assay with LigandTracer; 10^6 ML-1 cells seeded in a tilted Petri dish; 2 mL of 30 nM radiolabeled ligand in culture medium for 1 h, then medium without ligand to follow release; Kd from binding/release curve (GraphPad Prism).
TSH receptor (TSHR) on human ML-1 cells (human (endogenous in ML-1)), sequence (P16473 21-764): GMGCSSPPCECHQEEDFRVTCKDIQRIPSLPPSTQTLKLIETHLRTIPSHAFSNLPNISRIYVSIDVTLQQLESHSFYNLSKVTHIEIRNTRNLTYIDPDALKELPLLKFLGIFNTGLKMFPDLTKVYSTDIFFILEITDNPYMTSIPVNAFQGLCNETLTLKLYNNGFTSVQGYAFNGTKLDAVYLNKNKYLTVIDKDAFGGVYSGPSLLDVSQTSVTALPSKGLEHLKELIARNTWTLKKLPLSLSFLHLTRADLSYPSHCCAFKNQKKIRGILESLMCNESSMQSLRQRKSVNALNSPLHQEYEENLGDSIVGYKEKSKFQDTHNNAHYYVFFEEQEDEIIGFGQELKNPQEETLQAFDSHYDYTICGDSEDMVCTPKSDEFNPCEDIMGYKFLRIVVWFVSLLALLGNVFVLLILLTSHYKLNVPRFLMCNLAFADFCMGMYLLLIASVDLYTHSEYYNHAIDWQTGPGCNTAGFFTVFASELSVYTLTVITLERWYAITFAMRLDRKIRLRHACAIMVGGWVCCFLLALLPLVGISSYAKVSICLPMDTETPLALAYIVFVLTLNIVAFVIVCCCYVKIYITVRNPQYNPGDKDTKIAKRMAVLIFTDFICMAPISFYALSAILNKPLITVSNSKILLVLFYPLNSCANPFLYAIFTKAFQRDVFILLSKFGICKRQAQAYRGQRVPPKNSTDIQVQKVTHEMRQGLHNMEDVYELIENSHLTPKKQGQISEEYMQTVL

99mTc-HYNIC-TR1402, radiolabeled superagonist recombinant human TSH analogue TR1402, sequence (P01215 25-116): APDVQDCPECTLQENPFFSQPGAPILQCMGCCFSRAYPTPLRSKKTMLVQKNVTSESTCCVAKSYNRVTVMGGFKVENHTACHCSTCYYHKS
99mTc-HYNIC-TR1402, radiolabeled superagonist recombinant human TSH analogue TR1402, sequence (P01222 21-132): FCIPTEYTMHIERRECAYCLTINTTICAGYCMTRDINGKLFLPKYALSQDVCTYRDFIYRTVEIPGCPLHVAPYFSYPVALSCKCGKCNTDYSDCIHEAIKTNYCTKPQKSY
99mTc-HYNIC-TR1401, radiolabeled superagonist recombinant human TSH analogue TR1401, sequence (P01215 25-116): as the sequence (P01215 25-116) above
99mTc-HYNIC-TR1401, radiolabeled superagonist recombinant human TSH analogue TR1401, sequence (P01222 21-132): as the sequence (P01222 21-132) above

The substance “99mTc-HYNIC-TR1401, radiolabeled superagonist recombinant human TSH analogue TR1401 (from UniProt P01215 25-116; P01222 21-132) (ligand)” displayed a Kd of 2.7 nM.

Turning to “99mTc-HYNIC-TR1402, radiolabeled superagonist recombinant human TSH analogue TR1402 (from UniProt P01215 25-116; P01222 21-132) (ligand)”, the Kd was determined as 0.5 nM. Compared with the last substance, the Kd is about 5.4-fold lower.
